Assay [1] deals with 6HisGFP-XCTK2-MBD2^mut (Xenopus) (UniProt P79955). Kind of assay: co-sedimentation.
Assay [2] concerns the target GFP-XCTK2 (full-length, wild type) (Xenopus) (UniProt P79955). Description: co-sedimentation.
Assay [3] concerns the target His6-importin α-CyPet / S-His6-importin β (UniProt P52292). Description: FRET or BRET. (Bioluminescence resonance energy transfer reports proximity on the nanometre scale.)
The target of assay [4] is doubly stabilized microtubules (GMPCPP and paclitaxel) polymerized from cycled bovine tubulin (bovine, UniProt Q6B856 1-445). Kind of assay: co-sedimentation.

Chain of GFP-XCTK2 (full-length, wild type) (Xenopus) (P79955 whole entry): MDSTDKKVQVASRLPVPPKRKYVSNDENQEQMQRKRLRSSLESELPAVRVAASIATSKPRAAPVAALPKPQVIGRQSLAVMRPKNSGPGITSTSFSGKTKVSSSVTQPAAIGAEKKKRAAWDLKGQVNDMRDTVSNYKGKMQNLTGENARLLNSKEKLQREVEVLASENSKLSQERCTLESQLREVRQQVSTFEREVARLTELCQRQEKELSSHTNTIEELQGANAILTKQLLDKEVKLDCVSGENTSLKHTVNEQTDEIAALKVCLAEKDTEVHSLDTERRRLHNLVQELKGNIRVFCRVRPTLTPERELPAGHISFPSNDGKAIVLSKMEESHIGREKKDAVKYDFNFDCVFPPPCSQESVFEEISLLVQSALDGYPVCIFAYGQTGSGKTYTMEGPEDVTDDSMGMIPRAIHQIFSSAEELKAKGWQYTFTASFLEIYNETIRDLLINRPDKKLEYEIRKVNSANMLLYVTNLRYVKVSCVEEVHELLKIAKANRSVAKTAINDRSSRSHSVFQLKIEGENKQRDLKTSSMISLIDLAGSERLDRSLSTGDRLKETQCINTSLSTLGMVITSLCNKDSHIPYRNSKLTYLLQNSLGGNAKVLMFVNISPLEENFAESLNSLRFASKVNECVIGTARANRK

“importin α-His6 / S-His6-importin β (from UniProt P52292 1-529; Q14974 1-876) (complex)”: the percent reduction of MT binding by 0.4 µM importin α/β in assay [1] stood at 43%; in assay [2], 64%. Turning to “YPet-Tail C2 (from UniProt P79955 62-120) (domain or fragment)”, in assay [3], the fold higher apparent Kd than YPet-Tail was found to be 8 fold. Regarding “YPet-Tail C3 (from UniProt P79955 80-120) (domain or fragment)”, in assay [3], the fold higher apparent Kd than YPet-Tail is 8 fold.

B1: YPet-Tail N3 (domain or fragment, Xenopus, UniProt P79955 2-79, looked up)
chain: DSTDKKVQVASRLPVPPKRKYVSNDENQEQMQRKRLRSSLESELPAVRVAASIATSKPRAAPVAALPKPQVIGRQSLA
Broadly, the stoichiometry N is a count of units in the complex or per binding partner. Turning to B1, in assay [4], the “fold higher apparent MT affinity than YPet-Tail C2” value was roughly 2 fold and the “stoichiometry N” value came to 1.1 per tubulin dimer.

B2: YPet-Tail N3-MBD1^mut (domain or fragment)
chain: DSTDKKVQVASRLPVPPAAAYVSNDENQEQMQAAALRSSLESELPAVRVAASIATSKPRAAPVAALPKPQVIGRQSLA
Take B2: the “fold higher Kd than YPet-Tail N3” value in assay [4] worked out at 10 fold.

B3: YPet-Tail C2 (domain or fragment, Xenopus, UniProt P79955 62-120, looked up)
chain: APVAALPKPQVIGRQSLAVMRPKNSGPGITSTSFSGKTKVSSSVTQPAAIGAEKKKRAA
As to B3, the “stoichiometry N” value in assay [4] turned out to be 1.1 per tubulin dimer.

The values above are taken from paper PMC12206513 (Molecular Biology of the Cell, 2025).
